Usually Kd stands for a measure of binding affinity in units of concentration. By stoichiometry N is commonly meant a count of units in the complex or per binding partner.

Experimental findings from article PMC10140031 are described below.

In assay [1] the target is His-ISG65_(18-363)-Avi, C-terminally biotinylated (T. b. gambiense). Briefly: SPR; biotinylated His-ISG65_(18-363)-Avi immobilised on Series S sensor chip CAP, BIAcore T200, 25 °C; 20 mM HEPES pH 7.5, 150 mM NaCl, 3 mM EDTA, 0.005% TWEEN-20; analytes C3d and C3d mutants (0.78-50 nM), native C3, C3b, C3MA, C3c. (In general: Surface plasmon resonance follows binding to a sensor surface in real time, without labels.)

Assay [2] addresses His-C3d-Avi, biotinylated (human). The experiment in a line: SPR; biotinylated His-C3d-Avi immobilised on Series S sensor chip CAP, BIAcore T200, 25 °C; 20 mM HEPES pH 7.5, 150 mM NaCl, 3 mM EDTA, 0.005% TWEEN-20; analytes ISG65 and ISG65 mutants 1.5-100 nM.
For assay [3], the target named is native human complement C3 (human) (UniProt P01024).
Sequence of native human complement C3 (human) (P01024 23-667, chain 1 of 2): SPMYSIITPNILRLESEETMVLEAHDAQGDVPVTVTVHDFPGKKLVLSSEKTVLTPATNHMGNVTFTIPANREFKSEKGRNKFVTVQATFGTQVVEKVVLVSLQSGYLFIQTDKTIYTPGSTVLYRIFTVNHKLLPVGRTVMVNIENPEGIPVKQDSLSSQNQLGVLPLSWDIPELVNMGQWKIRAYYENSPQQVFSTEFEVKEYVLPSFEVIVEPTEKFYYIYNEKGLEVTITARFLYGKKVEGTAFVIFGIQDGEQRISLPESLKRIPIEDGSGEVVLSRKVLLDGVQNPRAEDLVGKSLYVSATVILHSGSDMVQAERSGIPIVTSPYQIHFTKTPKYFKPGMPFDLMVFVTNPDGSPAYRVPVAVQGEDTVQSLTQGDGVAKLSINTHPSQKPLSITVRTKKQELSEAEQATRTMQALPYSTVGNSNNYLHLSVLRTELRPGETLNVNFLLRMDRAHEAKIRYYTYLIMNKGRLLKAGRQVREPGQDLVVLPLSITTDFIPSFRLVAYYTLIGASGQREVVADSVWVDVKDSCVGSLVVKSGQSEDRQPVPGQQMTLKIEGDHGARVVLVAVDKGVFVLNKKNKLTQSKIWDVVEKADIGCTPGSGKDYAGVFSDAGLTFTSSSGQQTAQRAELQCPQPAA
Sequence of native human complement C3 (human) (P01024 672-1663, chain 2 of 2): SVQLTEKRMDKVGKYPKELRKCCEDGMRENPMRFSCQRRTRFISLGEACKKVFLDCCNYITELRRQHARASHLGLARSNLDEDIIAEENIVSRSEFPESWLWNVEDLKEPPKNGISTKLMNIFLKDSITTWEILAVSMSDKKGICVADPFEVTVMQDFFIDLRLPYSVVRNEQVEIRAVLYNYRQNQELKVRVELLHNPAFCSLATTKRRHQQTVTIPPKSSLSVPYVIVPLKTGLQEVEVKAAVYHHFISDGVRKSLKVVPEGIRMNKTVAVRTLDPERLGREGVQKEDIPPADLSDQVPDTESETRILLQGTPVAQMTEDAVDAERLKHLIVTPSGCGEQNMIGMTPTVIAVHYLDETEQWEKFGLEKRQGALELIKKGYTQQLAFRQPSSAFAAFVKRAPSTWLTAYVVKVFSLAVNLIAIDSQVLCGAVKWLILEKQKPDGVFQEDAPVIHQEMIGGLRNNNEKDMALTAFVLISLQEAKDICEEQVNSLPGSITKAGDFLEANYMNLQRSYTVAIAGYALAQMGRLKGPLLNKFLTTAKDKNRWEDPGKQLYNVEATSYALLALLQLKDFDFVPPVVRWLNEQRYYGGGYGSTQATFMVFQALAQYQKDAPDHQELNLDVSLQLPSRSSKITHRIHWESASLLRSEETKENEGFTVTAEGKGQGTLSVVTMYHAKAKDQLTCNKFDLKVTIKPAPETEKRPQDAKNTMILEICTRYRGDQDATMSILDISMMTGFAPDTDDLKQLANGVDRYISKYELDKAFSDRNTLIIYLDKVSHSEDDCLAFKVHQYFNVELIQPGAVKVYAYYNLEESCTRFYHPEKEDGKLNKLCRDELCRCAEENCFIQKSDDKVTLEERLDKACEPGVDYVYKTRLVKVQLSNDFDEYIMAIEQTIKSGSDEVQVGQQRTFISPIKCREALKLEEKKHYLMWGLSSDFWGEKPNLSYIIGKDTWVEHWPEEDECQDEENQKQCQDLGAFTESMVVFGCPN
Assay [4] concerns the target Alexa Fluor 594 labelled human C3b (human) (UniProt P01024). Briefly: flow cytometry on cells; competition: recombinant ISG65 at 1.5-fold molar excess preincubated with AF594 labelled C3b for 10 min before addition to T. b. gambiense cells on ice.
Assay [5] deals with His-C3d-Avi, biotinylated. The experiment in a line: SPR.
The target in assay [6] is His-ISG65_(18-363) Lys97Ala (T. b. gambiense). The experiment in a line: SPR; His-ISG65_(18-363) covalently immobilised via amine coupling; C3a (8-0.25 µM) flown over at 30 µl/min, 100 s association, 300 s dissociation; regeneration 1 M NaCl.
Assay [7] deals with His-ISG65_(18-363) Glu302Ala (T. b. gambiense). The assay is described as above.
The target in assay [8] is His-ISG65_(18-363), extracellular domain of invariant surface glycoprotein 65 of T. b. gambiense (T. b. gambiense). The assay is described as above.
The target is the same in assay [9]. Briefly: cross-linking; ISG65 and C3b mixed 2:1, 100x molar excess of DSA, 20 mM HEPES pH 7.5, 150 mM NaCl, room temperature 30 min; SDS-PAGE.

Sequence of human complement C3a (P01024 672-748): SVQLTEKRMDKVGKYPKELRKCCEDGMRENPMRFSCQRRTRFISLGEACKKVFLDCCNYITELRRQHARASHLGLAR
Sequence of Alexa Fluor 594 labelled human C3b (human) (P01024 23-667, chain 1 of 2): as the sequence (P01024 23-667, chain 1 of 2) above
Sequence of Alexa Fluor 594 labelled human C3b (human) (P01024 749-1663, chain 2 of 2): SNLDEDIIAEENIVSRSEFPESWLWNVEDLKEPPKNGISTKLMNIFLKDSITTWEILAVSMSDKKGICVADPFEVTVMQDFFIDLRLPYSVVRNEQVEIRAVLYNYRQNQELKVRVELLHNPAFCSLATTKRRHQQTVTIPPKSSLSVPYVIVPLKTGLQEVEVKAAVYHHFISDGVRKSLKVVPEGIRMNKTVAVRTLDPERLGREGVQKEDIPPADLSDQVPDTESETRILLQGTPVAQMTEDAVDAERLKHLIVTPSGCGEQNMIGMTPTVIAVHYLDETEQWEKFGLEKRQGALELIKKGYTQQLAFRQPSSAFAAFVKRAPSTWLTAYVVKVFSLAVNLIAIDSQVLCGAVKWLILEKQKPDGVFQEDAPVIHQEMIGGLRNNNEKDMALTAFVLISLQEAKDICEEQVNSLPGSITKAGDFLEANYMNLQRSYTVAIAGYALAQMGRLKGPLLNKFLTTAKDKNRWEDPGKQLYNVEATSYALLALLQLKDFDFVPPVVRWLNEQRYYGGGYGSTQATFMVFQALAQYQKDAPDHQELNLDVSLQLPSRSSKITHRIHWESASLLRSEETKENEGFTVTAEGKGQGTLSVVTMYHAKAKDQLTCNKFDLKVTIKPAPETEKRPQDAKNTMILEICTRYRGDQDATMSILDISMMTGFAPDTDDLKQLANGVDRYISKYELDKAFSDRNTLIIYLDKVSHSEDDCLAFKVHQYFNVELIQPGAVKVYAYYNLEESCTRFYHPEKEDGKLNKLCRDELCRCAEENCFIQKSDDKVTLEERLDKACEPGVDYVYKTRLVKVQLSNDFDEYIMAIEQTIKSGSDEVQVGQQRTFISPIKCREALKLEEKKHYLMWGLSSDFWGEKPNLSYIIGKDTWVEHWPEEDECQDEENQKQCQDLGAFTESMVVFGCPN

In [1], “C3MA, methylamine-treated human C3 (from UniProt P01024 23-667; P01024 672-1663) (natural protein)” came in with a Kd of 18 nM.
His-C3d Arg1134Ala (domain or fragment) registered a KD relative to wild type (so in the source) in assay [1] of 30%.
Substance “His-C3d, recombinant human C3d (domain or fragment)” returned a Kd in [1] of 7 nM.
Substance “His-ISG65_(18-363) Trp211Ala (domain or fragment)” yielded a KD relative to wild type (so in the source) in [2] of 42%.
“His-ISG65_(18-363), extracellular domain of invariant surface glycoprotein 65 of T. b. gambiense (domain or fragment)” registered an AP50 haemolysis assay: lysis of rabbit erythrocytes in human serum after activation of the alternative pathway, soluble ISG65 7.5-0 µM in assay [3] below 90%. Also, in assay [4], the percent reduction of C3b surface binding to T. b. gambiense cells was 60%.
As for “His-ISG65_(18-363), extracellular domain of invariant surface glycoprotein 65 of T. b. gambiense T297A”, the percent of parent in assay [5] amounted to 15%.
Same read-out and setting: for “His-ISG65_(18-363), extracellular domain of invariant surface glycoprotein 65 of T. b. gambiense Y70A” the value was 36%.
Take “human complement C3a (from UniProt P01024 672-748) (domain or fragment)”: the Kd turned out to be 80000 nM in assay [6], 78000 nM in [7] and 18000 nM in assay [8].
Consider “human complement C3b (from UniProt P01024 23-667; P01024 749-1663) (domain or fragment)”, for which the Kd in assay [1] amounted to 81 nM. In addition, in [9], the stoichiometry N worked out at 1.
Regarding “native human complement C3 (from UniProt P01024 23-667; P01024 672-1663) (natural protein)”, in [1], the Kd turned out to be 130 nM.
